These results are taken from patent publication US7087717B2, “Sp110, a polypeptide component of the nuclear body” (The General Hospital Corporation, priority 2000, dated 2006).

Experiment [1] has as its system CAT reporter plasmid containing five GAL4 binding sites and an SV40 enhancer region (pG5SV-BCAT). The experiment in a line: GAL4 fusion / CAT reporter gene transcription assay in COS cells. The format is cell-based. An excerpt: To examine the potential effect of Sp110 on gene transcription, a eukaryotic expression plasmid encoding Sp110 fused to the DNA-binding domain of GAL4 (pBXG-Sp1110) was co-transfected with a CAT reporter plasmid containing five GAL4 binding sites and an SV40 enhancer region (pG5SV-BCAT) into COS cells.
To identify the portion of Sp110 that enhances reporter gene expression, DNA segments encoding fragments of Sp110 fused to GAL4 were expressed with a reporter gene in COS cells. […] The mechanism by which Sp110 enhances PPARα-mediated gene transcription can be investigated, as described below, by identifying proteins that interact with the activation domain and SAND domain.

A further experiment deals with CBP. Description: Mammalian two-hybrid assay with GAL4-CBP in COS cells. The format is cell-based. Particulars: VP16 fusions, compared with VP16 alone. An excerpt:
PPARα interacted with the N-terminal portion of CBP/p300 between amino acid residues 39 and 221. To determine whether Sp110 also interacts with CBP, the mammalian two-hybrid system was used as an assay. In this assay, the GAL4 DNA-binding domain (GAL4) fused to CBP (GAL4-CBP) and a luciferase reporter gene containing GAL4 response elements were expressed in COS cells with either Sp110 fused to the herpes simplex virus VP16 activation domain (VP16-Sp110) or VP16 alone. […] Thus, Sp110 interacts, either directly or indirectly, with CBP. The site of functional interaction between Sp110 and CBP was mapped more specifically to amino acid residues 271–720 of CBP. The Sp110-CBP functional interaction domain is therefore distinct from the PPARα-CBP interaction domain.
To identify the portion of Sp110 that functionally interacts with CBP, the N-terminal or C-terminal portions of Sp110 were fused to VP16 and expressed in COS cells together with GAL4CBP and a reporter gene. […] As described below, studies can be carried out to further delineate the domains that mediate functional interaction between Sp110 and CBP and to test whether Sp110 interacts with CBP directly.

The test system of a further experiment is HL60 cells. The experiment in a line: Sp110 mRNA level by RNA blot after IFN-γ treatment. It is filed as cell-based, human. The note with it: 200 units/ml, 48 hours. As to the method: To investigate the expression of Sp110 in cells of the monocyte/granulocyte lineage, RNA was prepared from the myeloid precursor cell lines HL60 and NB4 (HL60 cells are available from the American Type Culture Collection, Manassas, Va.). RNA was extracted from these cell lines using the guanidinium isothiocyanate-cesium chloride method (Sambrook et al., Cold Spring Harbor Laboratory, Cold Spring Harbor, N.Y., 1989). The HL60 cells were maintained in RPMI supplemented with 10% fetal calf serum, L-glutamine (2 mM), penicillin (200 units/ml), and streptomycin (200 mg/ml). RNA was fractionated in formaldehyde-agarose gels (5 μg/lane) and equal loading of RNA was confirmed by staining 28S and 18S ribosomal RNA with ethidium bromide. RNA was transferred to nylon membranes and the membranes were hybridized with the radiolabeled XbaI restriction fragment of the Sp110 cDNA or the EcoRI/BamHI restriction fragment of the cDNA encoding human Sp100 (Bloch et al., J. Biol. Chem. 46:29198–29204, 1996). Membranes were washed and analyzed by autoradiography. Low levels of Sp110 mRNA were detected in both NB4 cells and HL60 cells.
To examine the effect of cellular differentiation on Sp110 mRNA, NB4 cells were treated for 48 hours with all trans retinoic acid (ATRA) (1 μM). […] To examine the effect of IFN-γ treatment on Sp110 mRNA levels, HL60 cells were treated with IFN-γ (200 units/ml) for 48 hours.

The test system of the next experiment is RARα response element. Description: RAR transcriptional co-activation reporter assay. It is filed as cell-based. Particulars: for signal transduction through RARα / expression of the reporter gene: expressed with RARα. As to the method: Experiments were also performed to determine whether Sp110 could function as a retinoic acid receptor (RAR) transcriptional co-activator. […] The extent of reporter gene activation by Sp110 was similar to that induced by the nuclear body component PML.
On the technique in general: In a reporter assay the amount or activity of a reporter protein is the signal.

The subject of a further experiment is PPARα. Description: PPARα co-activation reporter assay (PPRE) in COS cells. It is filed as cell-based. Particulars: COS cells co-transfected with PPARα; compared with PPARα expressed alone. An excerpt: Sp110 also acted as a co-activator of PPARα. […] Sp110 may interact with nuclear hormone receptors via an LXXLL domain. To determine whether Sp110 interacts with PPARα via the LULL domain, oligonucleotides and PCR were used to prepare a mutant Sp110 protein (Sp110m) in which two of the three leucine residues were changed, one to valine and one to alanine (LXXVA).

The subject of a further experiment is PPARγ receptor. The experiment in a line: PPARγ signal transduction reporter assay. The format is cell-based.

B1: C-terminal portion: C-terminal portion of Sp110, containing the PHD and the bromodomain, fused to VP16 or GAL4 (protein)
chain: KRKNSDECEVCCQGGQLLCCGTCPRVFHEDCHIPPVEAKRMLWSCTFCRMKRSSGSQQCHHVSKTLERQMQPQDQLIRDYGEPFQEAMWLDLVKERLITEMYTVAWFVRDMRLMFRNHKTFYKASDFGQVGLDLEAEFEKDLKDVLGFHEANDGGFWTLP
modifications: left off: large carriers
notes: C-terminal portion of Sp110, containing the PHD and the bromodomain, fused to VP16 or GAL4
Consider B1, for which the “reporter gene expression by fragments of Sp110 fused to GAL4” value in experiment [1] is on record as “Neither the N-terminal (Sp100-like domain), nor the C-terminal (PHD/bromodomain) portions of Sp110 increased expression of the reporter gene”. For the same molecule, in the experiment with CBP, the “GAL4-CBP-induced luciferase reporter gene activity” value is “enhanced”.

B2: N-terminal portion: N-terminal portion of Sp110, containing the Sp100-like region, fused to VP16 or GAL4 (protein)
chain: MFTMTRAMEEALFQHFMHQKLGIAYAIHKPFPFFEGLLDNSIITKRMYMESLEACRNLIPVSRVVHNILTQLERTFNLSLLVTLFSQINLREYPNLVTIYRSFKRVGASYERQSRDTPILLEAPTGLAEGSSLHTPLALPHHKPPQPSCSPCAPRVSEPGTSSQQSTEILSESPSPSDPVLPLPALIQEGRSTSVTNDKLTSKMNAEEDSEEMPSLLTSTVQVASDNLIP
modifications: left off: large carriers
notes: N-terminal portion of Sp110, containing the Sp100-like region, fused to VP16 or GAL4
Turning to B2, in experiment [1], the “reporter gene expression by fragments of Sp110 fused to GAL4” value is “Neither the N-terminal (Sp100-like domain), nor the C-terminal (PHD/bromodomain) portions of Sp110 increased expression of the reporter gene”. The “GAL4-CBP-induced luciferase reporter gene activity” value with CBP is “did not”.

B3: IFN-γ: interferon (protein, UniProt P01579 24-161, looked up)
Interferon gamma: QDPYVKEAENLKKYFNAGHSDVADNGTLFLGILKNWKEESDRKIMQSQIVSFYFKLFKNFKDDQSIQKSVETIKEDMNVKFFNSNKKKRDDFEKLTNYSVTDLNVQRKAIHELIQVMAELSPAAKTGKRKRSQMLFRG
As for B3, the “Sp110 mRNA level” value in the experiment on HL60 cells is given as “marked increase”.

B4: Sp110: novel 110 kDa polypeptide component of the nuclear body, 689 amino acids, SEQ ID NO:2 (protein, listed as Homo sapiens)
chain: MFTMTRAMEEALFQHFMHQKLGIAYAIHKPFPFFEGLLDNSIITKRMYMESLEACRNLIPVSRVVHNILTQLERTFNLSLLVTLFSQINLREYPNLVTIYRSFKRVGASYERQSRDTPILLEAPTGLAEGSSLHTPLALPHHKPPQPSCSPCAPRVSEPGTSSQQSTEILSESPSPSDPVLPLPALIQEGRSTSVTNDKLTSKMNAEEDSEEMPSLLTSTVQVASDNLIPQIRDKEDPQEMPHSPLGSMPEIRDNSPEPNDPEEPQEVSSTPSDKKGKKRKRCIWSTPKRRHKKKSLPRGTASSRHGIQKKLKRVDQVPQKKDDSTCNSTVETRAQKARTECARKSRSEEIIDGTSEMNEGKRSQKTPSTPRRVTQGAASPGHGIQEKLQVVDKVTQRKDDSTWNSEVMMRVQKARTKCARKSRSKEKKKEKDICSSSKRRFQKNIHRRGKPKSDTVDFHCSKLPVTCGEAKGILYKKKMKHGSSVKCIRNEDGTWLTPNEFEVEGKGRNAKNWKRNIRCEGTTLGELLKRKNSDECEVCCQGGQLLCCGTCPRVFHEDCHIPPVEAKRMLWSCTFCRMKRSSGSQQCHHVSKTLERQMQPQDQLIRDYGEPFQEAMWLDLVKERLITEMYTVAWFVRDMRLMFRNHKTFYKASDFGQVGLDLEAEFEKDLKDVLGFHEANDGGFWTLP
For B4, the “ATRA-induced expression of the reporter gene” value in the experiment with RARα response element (COS cells, reporter with three copies of the RARα response element) was “significantly enhanced”. In addition, the “signal transduction through RARα / expression of the reporter gene” value in the experiment with RARα response element was “enhanced signal transduction”. In addition, in the experiment with PPARα, the “agonist-induced expression of the PPRE reporter gene / activation of the PPARα receptor” value was “markedly enhanced”. Further, in the experiment on PPARγ receptor, the “signal transduction through the PPARγ receptor” value is “enhanced signal transduction”.

B5: Sp110m: mutant Sp110 protein in which two of the three LXXLL leucine residues were changed, one to valine and one to alanine (LXXVA) (protein)
chain: B4 chain
Regarding B5, the “signal transduction through RARα / expression of the reporter gene” value in the experiment on RARα response element was “also enhanced expression of the reporter gene”. For the same molecule, the “agonist-induced expression of the PPRE reporter gene / activation of the PPARα receptor” value with PPARα is given as “less than wild-type Sp110”. In addition, the “signal transduction through the PPARγ receptor” value in the experiment with PPARγ receptor was “enhanced signal transduction”.
